Entries after “also recorded” stand apart in the source; their conditions may differ.
What was measured:
amphoterin = target: T1, amphoterin (Homo sapiens, UniProt P09429); assay: In vitro ligand binding assay (ELISA), immobilized amphoterin; settings: ligand 5 micrograms per well; dilutions of initial fusion protein solution; FIG. 7
T1 sequence (P09429 1-215): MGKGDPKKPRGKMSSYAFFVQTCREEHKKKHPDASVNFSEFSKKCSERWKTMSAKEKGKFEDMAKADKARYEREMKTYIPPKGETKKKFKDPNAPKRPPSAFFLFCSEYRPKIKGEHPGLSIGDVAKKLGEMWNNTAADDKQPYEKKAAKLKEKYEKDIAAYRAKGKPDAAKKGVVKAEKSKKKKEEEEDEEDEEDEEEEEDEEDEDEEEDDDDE
Experimental: For example, the fusion protein may be used in a binding assay to identify potential ligands that bind to the non-immunoglobulin protein. In one example embodiment of such a binding assay, a known ligand may coated onto a solid substrate (e.g., Maxisorb plates) at a biologically relevant concentration (e.g., about 5 micrograms per well), where each well contains a total volume of about 100 microliters (μL). The plates may be incubated at 4° C. overnight to allow the ligand to bind to the substrate. Alternatively, shorter incubation periods at higher temperature (e.g., room temperature) may be used. After a period of time to allow for the ligand to bind to the substrate, the assay wells may be aspirated and a blocking buffer (e.g., 1% BSA in 50 mM imidizole buffer, pH 7.2) may be added to block nonspecific binding. […] The fusion protein bound to the immobilized ligand may be detected in a variety of ways. […] The bound complex may be detected by adding a substrate for the secondary antibody complex, e.g., the alkaline phosphatase substrate, para-nitrophenylphosphate (PNPP), and measuring conversion of PNPP to para-nitrophenol (PNP) as an increase in absorbance at 405 nm. […] In the absence of ligand (i.e., coating with only BSA) there was no increase in absorbance. The binding assay of the present invention may be used to quantify ligand binding. […]

[1] = system: Zucker diabetic rats, balloon injury of left common carotid artery; assay: Diabetic rat model of restenosis (balloon injury of left common carotid artery); type: in vivo; settings: for Intimal area / Medial area: IP, 21 days, mean±SD
Experimental: For example, fusion proteins of the present invention comprising a RAGE ligand binding site have been used in the treatment of diabetes related pathology. […] Use of the RAGE fusion proteins in the treatment of diabetes related pathology is illustrated in Table 1.
In these experiments, balloon injury of left common carotid artery was performed in Zucker diabetic and nondiabetic rats using standard procedure. […] A maintenance dose was delivered every other day until day 7 after injury (i.e., at day 1, 3, 5 and 7 after injury). The maintenance dose was high=1 mg/animal for one group, or low=0.3 mg/animal for the second group. To measure vascular smooth muscle cell (VSMC) proliferation, animals were sacrificed at 4 days and 21 days after injury.
For the measurement of cell proliferation, 4 day animals received intraperitoneal injection of bromodeoxyuridine (BrDdU) 50 mg/kg at 18, 12, and 2 hours before euthanasia. After sacrifice, the entire left and right carotid arteries were harvested. Specimens were stored in Histochoice for at least 24 hours before embedding. Assessment of VSMC proliferation was performed using mouse anti-BrdU monoclonal antibody. A fluorescence labeled goat anti-mouse secondary antibody was applied. The number of BrdU-positive nuclei per section were counted by two observers blinded to the treatment regimens.
The remaining rats were sacrificed at 21 days for morphometric analysis. Morphometric analyses were performed by an observer blinded to the study groups, using computerized digital microscopic planimetry software Image-Pro Plus on serial sections, ([…]) carotid arteries stained by Van Gieson staining All data were expressed as mean±SD. Statistical analysis was performed with use of SPSS software. Continuous variables were compared using unpaired t tests. A values of P≦0.05 was considered to be statistically significant.

mice that have AD = assay: Mice that have Alzheimer's Disease, treated for 3 months; type: in vivo; settings: versus vehicle or human IgG negative control (IgG1)
Text: Also, fusion proteins of the present invention comprising a RAGE ligand binding site may also be used to treat reduce amyloidosis and to reduce amyloid plaques and cognitive dysfunction associated with Alzheimer's Disease (AD).

Fc receptor [2] = system: Fc receptor
Experimental: (§1) Fc receptor activation was measured by measuring TNF-α secretion from THP-1 cells that express the Fc receptor. […] Fc stimulation results in TNF-α secretion. The amount of TNF-α was measured by an Enzyme Linked Immunoabsorbent Assay (ELISA).
(§2) Thus, in this assay, the myeloid cell line, THP-1 (ATTC #TIB-202) was maintained in RPMI-1640 media supplemented with 10% fetal bovine serum per ATCC instructions. […] The amount of TNF-alpha secreted by the THP-1 cells was measured in supernatants collected from 24 hours cultures of cells in the treated wells using a commercially available TNF ELISA kit (R&D Systems, Minneapolis, Minn. #DTA00C) per instructions.

Fc receptor [3] = assay: Fc receptor activation: TNF-α secretion from THP-1 cells; settings: well precoated with 10 ug/well heat aggregated protein, 24 hours, FIG. 12
Experimental: as §1, §2

[4] = High dose 1.0 mg/animal qod × 4, loading dose 3 mg/animal
[5] = Low dose 0.3 mg/animal qod × 4, loading dose 3 mg/animal

B1: TTP-4000: RAGE fusion protein: V and C1 domains of human RAGE (amino acids 1-251) linked to hinge-less CH2 and CH3 of human IgG1; SEQ ID NO: 16/18 (protein)
chain 1: MAAGTAVGAWVLVLSLWGAVVGAQNITARIGEPLVLKCKGAPKKPPQRLEWKLNTGRTEAWKVLSPQGGGPWDSVARVLPNGSLFLPAVGIQDEGIFRCQAMNRNGKETKSNYRVRVYQIPGKPEIVDSASELTAGVPNKVGTCVSEGSYPAGTLSWHLDGKPLVPNEKGVSVKEQTRRHPETGLFTLQSELMVTPARGGDPRPTFSCSFSPGLPRHRALRTAPIQPRVWEPVPLEEVQLVVEPEGGAVAPPSVFLFPPKPKDTLMISRTPEVTCVVVDVSHEDPEVKFNWYVDGVEVHNAKTKPREEQYNSTYRVVSVLTVLHQDWLNGKEYKCKVSNKALPAPIEKTISKAKGQPREPQVYTLPPSRDELTKNQVSLTCLVKGFYPSDIAVEWESNGQPENNYKTTPPVLDSDGSFFLYSKLTVDKSRWQQGNVFSCSVMHEALHNHYTQKSLSLSPGK
chain 2: ENITARIGEPLVLKCKGAPKKPPQRLEWKLNTGRTEAWKVLSPQGGGPWDSVARVLPNGSLFLPAVGIQDEGIFRCQAMNRNGKETKSNYRVRVYQIPGKPEIVDSASELTAGVPNKVGTCVSEGSYPAGTLSWHLDGKPLVPNEKGVSVKEQTRRHPETGLFTLQSELMVTPARGGDPRPTFSCSFSPGLPRHRALRTAPIQPRVWEPVPLEEVQLVVEPEGGAVAPPSVFLFPPKPKDTLMISRTPEVTCVVVDVSHEDPEVKFNWYVDGVEVHNAKTKPREEQYNSTYRVVSVLTVLHQDWLNGKEYKCKVSNKALPAPIEKTISKAKGQPREPQVYTLPPSRDELTKNQVSLTCLVKGFYPSDIAVEWESNGQPENNYKTTPPVLDSDGSFFLYSKLTVDKSRWQQGNVFSCSVMHEALHNHYTQKSLSLSPGK
modifications: synthetic four domain RAGE-Fc IgG fusion protein; synthetic four domain RAGE-Fc IgG fusion protein having signal sequence removed
B1 was tested, and the “binding to immobilized amphoterin (increase in absorbance at 405 nm)” value (amphoterin) was “able to bind; also recorded: specifically interact”, the “vascular smooth muscle cell proliferation (BrdU-positive nuclei), in words” value ([1]; 4 days after injury, dose-responsive) was “significantly reduced” and the Intimal area [1, 4] was 0.16 ± 0.02 mm^2. The Medial area [1, 4] was 0.11 ± 0.01 mm^2, the Intimal area [1, 5] was 0.18 ± 0.04 mm^2 and the Medial area [1, 5] was 0.11 ± 0.02 mm^2. The “amyloid beta (Aβ) plaques” value (mice that have AD) was “fewer amyloid beta (Aβ) plaques”, the cognitive dysfunction (mice that have AD) was “less cognitive dysfunction” and the “stimulation of TNF-α release from cells, in words” value (Fc receptor [2]) was “does not stimulate TNF-α release”. For the same molecule, the “TNF generated (Fc receptor activation)” value (Fc receptor [3]) was “less than 2 ng/well”.

Reference: patent US20110110945A1, “Immunoglobulin Fusion Proteins and Methods of Making” (TransTech Pharma, Inc., priority 2007, published 2011)
